According to publication PMC3630172:
pKd: −log10 of the molar value.

What follows are sequences tested on GST-rPfPuf2 (Plasmodium falciparum) (assay: EMSA). Conditions: LightShift RNA EMSA binding buffer (salt, pH not given), 5% glycerol, 2 ug tRNA per 20 ul, RNase inhibitor, 2.5 nM RNA, 0.25-400 nM rPfPuf2, room temperature ….

**Q.** “GAAAUGUUCUUUUCCAAUUAUAUUUUGUUCGAUGAUUC [pfs28 RNA1M]” was tested. Which pKd did it give?
**A.** 6.85

**Q.** “GAAAUGUUCUUUUGUAAUUAUAUUUUGUUCGAUGAUUC [pfs28 RNA1]” was tested. Which pKd did it give?
**A.** 8.17

**Q.** With “UUCUCAUUUCCUAAUAAAUUGUUGUGAAAACAA [pfs25 RNA1M]” as the sequence, how does the pKd read?
**A.** 6.77

**Q.** “UUCUCAUUUGUUAAUAAAUUGUUGUGAAAACAA [pfs25 RNA1]” was tested. Which pKd did it give?
**A.** 7.94
